Patent US8129557B2, “Phosphonic acid diester derivative and method for producing thereof” (priority 2005, dated 2012)

Substrate: Cc1cc(=O)oc2cc(NC(=O)CC[C@H](N)C(=O)O)ccc12
Experiment: Hydrolytic assay of E. coli GGT (Michaelis constant of substrate)
Type: biochemical, Escherichia coli K-12
Details: other: E. coli GGT, pH 5.5, 25° C.
Method: In the experiment, at first, Michaelis constants (Km) for 7-(γ-L-glutamylamino)-4-methylcoumarin as substrate were measured by a fluorescence method [Smith, G. D.; Ding, J. L.; Peters, T. J. Anal. Biochem. 100, 136-139 (1979)] for the hydrolytic activities of E-coli GGT and human GGT.
In the hydrolytic assay of E. coli GGT, 10 μL of a […] enzyme solution was added to a 100 mM succinic acid-sodium hydroxide buffer solution (pH 5.5) in a total volume of 1 mL containing 100 μL of 2 μM substrate aqueous solution. The product, 7-amino-4-methylcoumarin (AMC), released along with the enzyme reaction was traced continuously at 25° C. using a fluorospectrophotometer F-2000 manufactured by Hitachi Ltd. (excitation wavelength: 350 nm, emission wavelength: 440 nm). The AMC concentration was separately measured by forming a calibration curve showing the relation of the fluorescence intensity (F) and the concentration (C) using standard solutions and was calculated from the relational expression (1) of the fluorescence intensity alteration (ΔF) and concentration alteration (ΔC).
[Expression 1] ΔF/ΔC=0.11 nM^−1 (1)
The fluorescence intensity was proportional to the AMC concentration up to 2.0 μM. As a result, Km value for 7-(γ-L-glutamylamino)-4-methylcoumarin was 0.2 μM under this condition.

B1: E. coli GGT (Escherichia coli K-12) (protein)
chain 1: APPAPPVSYGVEEDVFHPVRAKQGMVASVDATATQVGVDILKEGGNAVDAAVAVGYALAVTHPQAGNLGGGGFMLIRSKNGNTTAIDFREMAPAKATRDMFLDDQGNPDSKKSLTSHLASGTPGTVAGFSLALDKYGTMPLNKVVQPAFKLARDGFIVNDALADDLKTYGSEVLPNHENSKAIFWKEGEPLKKGDTLVQANLAKSLEMIAENGPDEFYKGTIAEQIAQEMQKNGGLITKEDLAAYKAVERTPISGDYRGYQVYSMPPPSSGGIHIVQILNILENFDMKKYGFGSADAMQIMAEAEKYAYADRSEYLGDPDFVKVPWQALTNKAYAKSIADQIDINKAKPSSEIRPGKLAPYESNQ
chain 2: TTHYSVVDKDGNAVAVTYTLNTTFGTGIVAGESGILLNNQMDDFSAKPGVPNVYGLVGGDANAVGPNKRPLSSMSPTIVVKDGKTWLVTGSPGGSRIITTVLQMVVNSIDYGLNVAEATNAPRFHHQWLPDELRVEKGFSPDTLKLLEAKGQKVALKEAMGSTQSIMVGPDGELYGASDPRSVDDLTAGY
notes: was used as a purified enzyme of E-coli GGT; made in house
Km: 0.2 µM
